The results in this text go back to patent publication US20090208512A1.

The test deals with human recombinant Factor VIII (human) (UniProt P00451). Nature of the test: cell-based or functional assay.
Sequence of UniProt P00451 (P00451 20-2351): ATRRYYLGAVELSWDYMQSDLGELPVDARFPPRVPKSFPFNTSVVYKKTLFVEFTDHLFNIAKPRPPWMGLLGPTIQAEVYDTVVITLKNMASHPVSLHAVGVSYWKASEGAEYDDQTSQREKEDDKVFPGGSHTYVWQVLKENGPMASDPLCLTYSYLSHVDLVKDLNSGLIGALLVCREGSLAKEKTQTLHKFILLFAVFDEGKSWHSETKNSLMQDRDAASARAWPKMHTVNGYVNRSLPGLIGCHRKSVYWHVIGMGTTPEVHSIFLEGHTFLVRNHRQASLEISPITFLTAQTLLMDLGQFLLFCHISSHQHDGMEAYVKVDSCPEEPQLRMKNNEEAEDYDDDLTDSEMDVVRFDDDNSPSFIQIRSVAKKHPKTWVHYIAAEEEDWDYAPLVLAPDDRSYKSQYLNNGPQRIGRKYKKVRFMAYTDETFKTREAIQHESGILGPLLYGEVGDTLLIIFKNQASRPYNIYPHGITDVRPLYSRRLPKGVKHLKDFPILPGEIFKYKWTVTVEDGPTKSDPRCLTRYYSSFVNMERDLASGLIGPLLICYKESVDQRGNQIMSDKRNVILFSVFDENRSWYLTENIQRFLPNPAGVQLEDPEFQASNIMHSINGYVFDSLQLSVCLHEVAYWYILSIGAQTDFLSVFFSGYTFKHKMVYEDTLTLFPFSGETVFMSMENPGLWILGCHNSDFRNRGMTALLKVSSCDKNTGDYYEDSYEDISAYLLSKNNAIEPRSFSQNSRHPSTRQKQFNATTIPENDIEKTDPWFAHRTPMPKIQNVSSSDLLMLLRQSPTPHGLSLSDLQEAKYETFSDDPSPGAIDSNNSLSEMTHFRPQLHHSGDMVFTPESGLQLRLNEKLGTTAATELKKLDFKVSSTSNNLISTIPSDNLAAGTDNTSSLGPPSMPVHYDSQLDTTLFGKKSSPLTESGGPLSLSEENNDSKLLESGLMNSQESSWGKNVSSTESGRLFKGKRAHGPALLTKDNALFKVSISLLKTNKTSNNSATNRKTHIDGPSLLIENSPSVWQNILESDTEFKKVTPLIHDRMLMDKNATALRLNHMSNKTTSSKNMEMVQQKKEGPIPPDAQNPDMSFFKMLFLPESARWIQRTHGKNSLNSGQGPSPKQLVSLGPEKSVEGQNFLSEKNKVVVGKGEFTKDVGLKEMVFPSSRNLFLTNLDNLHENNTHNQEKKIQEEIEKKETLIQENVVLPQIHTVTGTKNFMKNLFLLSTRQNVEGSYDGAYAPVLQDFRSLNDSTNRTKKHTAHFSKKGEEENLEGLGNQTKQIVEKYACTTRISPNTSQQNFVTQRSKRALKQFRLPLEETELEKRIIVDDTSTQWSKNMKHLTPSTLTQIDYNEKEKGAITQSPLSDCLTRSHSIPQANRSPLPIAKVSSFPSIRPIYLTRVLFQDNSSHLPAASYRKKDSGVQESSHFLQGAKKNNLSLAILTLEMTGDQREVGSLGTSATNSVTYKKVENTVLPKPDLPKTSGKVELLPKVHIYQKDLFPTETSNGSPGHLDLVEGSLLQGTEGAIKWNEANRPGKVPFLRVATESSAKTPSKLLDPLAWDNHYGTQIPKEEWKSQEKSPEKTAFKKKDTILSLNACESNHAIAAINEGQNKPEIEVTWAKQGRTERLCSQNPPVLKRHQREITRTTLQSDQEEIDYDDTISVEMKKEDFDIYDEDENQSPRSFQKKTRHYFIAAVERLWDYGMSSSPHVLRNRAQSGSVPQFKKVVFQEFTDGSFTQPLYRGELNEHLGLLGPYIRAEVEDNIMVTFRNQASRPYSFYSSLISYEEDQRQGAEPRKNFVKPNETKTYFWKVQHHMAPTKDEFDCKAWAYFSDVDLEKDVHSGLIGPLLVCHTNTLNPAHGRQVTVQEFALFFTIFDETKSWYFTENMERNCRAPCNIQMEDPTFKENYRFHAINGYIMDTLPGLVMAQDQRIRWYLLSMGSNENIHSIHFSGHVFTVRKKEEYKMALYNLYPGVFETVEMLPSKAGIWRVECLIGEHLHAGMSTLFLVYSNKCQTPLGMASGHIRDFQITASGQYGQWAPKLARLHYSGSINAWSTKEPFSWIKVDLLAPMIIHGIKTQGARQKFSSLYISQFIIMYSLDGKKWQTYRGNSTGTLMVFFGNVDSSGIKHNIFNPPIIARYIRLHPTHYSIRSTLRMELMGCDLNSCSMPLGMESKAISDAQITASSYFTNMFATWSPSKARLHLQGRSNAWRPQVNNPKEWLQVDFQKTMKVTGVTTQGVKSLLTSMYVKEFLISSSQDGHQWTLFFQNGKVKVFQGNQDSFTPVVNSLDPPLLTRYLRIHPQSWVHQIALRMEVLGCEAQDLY

Turning to “von Willebrand Factor (from UniProt P04275 764-2813)”, the inhibition of hydrolysis of Factor VIII by anti-Factor VIII IgG came to 36.9%.
